Measurements taken from patent US20260274921A1 (ADAPTOCUE, published 2026).

Columns and labels:
[1] = molecular target: T1, human CD47 (cluster of differentiation 47), on cells (human, UniProt Q08722 19-323); assay: FACS on primary human platelets, pH 7.3
T1 construct: whole, on cells; also called IAP; integrin-associated protein
Method: Human primary platelets were seeded into 96-well plate at 1×10⁶/well and incubated with Fc blocking antibody at room temperature. […] After washing the platelets with 1×PBS+2% FBS at pH 7.3, FITC-labelled anti-human IgG Fc secondary antibody (Abcam, CAT #ab6854) were added and incubated at 4° C. for 30 minutes at pH 7.3. After washing, the platelets were then analyzed by FACS in 1×PBS+2% FBS at pH 7.3.

[2] = molecular target: T2, His-tagged CD47 extracellular domain (ECD) protein (Abclonal, CAT #RP01306) (human, UniProt Q08722 19-139); assay: ELISA, immobilized His-tagged CD47 ECD, fusion protein as analyte
T2 construct: extracellular domain; Bought; also called recombinant human CD47 protein with His-tag; His-tag human CD47 ECD protein

B1: MP-24, SIRPαV2 IgV WT-IgG1 Fc hole silent + aCD3 VH-CH1-IgG1 Fc knob silent + aCD3 VL-CL (bispecific antibody)
chain: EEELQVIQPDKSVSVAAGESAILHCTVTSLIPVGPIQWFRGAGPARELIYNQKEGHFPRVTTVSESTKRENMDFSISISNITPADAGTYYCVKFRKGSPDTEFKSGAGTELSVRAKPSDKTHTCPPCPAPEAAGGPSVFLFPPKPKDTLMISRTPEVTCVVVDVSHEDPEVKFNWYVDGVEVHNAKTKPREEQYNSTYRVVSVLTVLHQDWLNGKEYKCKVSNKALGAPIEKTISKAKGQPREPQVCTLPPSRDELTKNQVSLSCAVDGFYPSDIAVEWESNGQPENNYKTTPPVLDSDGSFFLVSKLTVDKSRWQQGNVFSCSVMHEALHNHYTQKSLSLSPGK
heavy: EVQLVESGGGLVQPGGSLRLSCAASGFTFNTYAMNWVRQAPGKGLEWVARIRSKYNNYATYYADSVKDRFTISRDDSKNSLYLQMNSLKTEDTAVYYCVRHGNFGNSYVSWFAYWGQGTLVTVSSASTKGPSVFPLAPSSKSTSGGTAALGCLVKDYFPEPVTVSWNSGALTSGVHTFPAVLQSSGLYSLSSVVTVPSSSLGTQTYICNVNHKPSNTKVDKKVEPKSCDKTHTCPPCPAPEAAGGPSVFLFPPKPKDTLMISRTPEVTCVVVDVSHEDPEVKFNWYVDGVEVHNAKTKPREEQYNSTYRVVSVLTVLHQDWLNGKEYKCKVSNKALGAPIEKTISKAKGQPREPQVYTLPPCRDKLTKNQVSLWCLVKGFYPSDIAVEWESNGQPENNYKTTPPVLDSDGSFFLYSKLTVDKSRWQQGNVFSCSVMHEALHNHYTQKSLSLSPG
light: QAVVTQEPSLTVSPGGTVTLTCRSSTGAVTTSNYANWVQQKPGQAPRGLIGGTNKRAPWTPARFSGSLLGGKAALTITGAQAEDEADYYCALWYSNLWVFGGGTKLTVLGQPKAAPSVTLFPPSSEELQANKATLVCLISDFYPGAVTVAWKADSSPVKAGVETTTPSKQSNNKYAASSYLSLTPEQWKSHRSYSCQVTHEGSTVEKTVAPTECS
notes: Format FV-67; one wild type SIRPαV2 IgV monomer; also called monovalent wild type SIRPαV2 IgV-IgG1 Fc protein
binding result [1]: binds
binding result [2]: binds
